1 protein from paper doi:10.1101/2023.12.22.572978 (bioRxiv, 2023) can be followed below.

This data set concerns the molecule itself. As to the kind of experiment: FRET or BRET. On the technique in general: Bioluminescence resonance energy transfer reports proximity on the nanometre scale.

B1: InlB321 K280C mutant, fluorophore-labeled (T variant) (domain or fragment, Listeria monocytogenes, UniProt P0DQD2 36-321, looked up)
chain: ETITVPTPIKQIFSDDAFAETIKDNLKKKSVTDAVTQNELNSIDQIIANNSDIKSVQGIQYLPNVTKLFLNGNKLTDIKPLANLKNLGWLFLDENKVKDLSSLKDLKKLKSLSLEHNGISDINGLVHLPQLESLYLGNNKITDITVLSRLTKLDTLSLEDNQISDIVPLAGLTKLQNLYLSKNHISDLRALAGLKNLDVLELFSQEALNKPINHQSNLVVPNTVKNTDGSLVTPEIISDDGDYECPNVKWHLPEFTNEVSFIFYQPVTIGKAKARFHGRVTQPLKE
modifications: Cy3B (donor) or ATTO 647N (acceptor) attached by maleimide chemistry to the single cysteine at position 280
B1: the binding result is given as “binds”.
